Reference: PMC3577887, “Multiple Consequences of a Single Amino Acid Pathogenic RTK Mutation: The A391E Mutation in FGFR3” (PLoS ONE, 2013)

Target: the molecule itself
Experiment: cross-linking; 2 mM BS3 (membrane-impermeable) on starved HEK 293 T cells transfected with 1 µg DNA, room temperature, no ligand; Western blot with anti-FGFR3; cross-linked fraction SD/(SM+SD) with the 130 kDa monomer band

B1: FGFR3 carrying the A391E mutation (Crouzon syndrome with Acanthosis Nigricans) (receptor)
chain: ESLGTEQRVVGRAAEVPGPEPGQQEQLVFGSGDAVELSCPPPGGGPMGPTVWVKDGTGLVPSERVLVGPQRLQVLNASHEDSGAYSCRQRLTQRVLCHFSVRVTDAPSSGDDEDGEDEAEDTGVDTGAPYWTRPERMDKKLLAVPAANTVRFRCPAAGNPTPSISWLKNGREFRGEHRIGGIKLRHQQWSLVMESVVPSDRGNYTCVVENKFGSIRQTYTLDVLERSPHRPILQAGLPANQTAVLGSDVEFHCKVYSDAQPHIQWLKHVEVNGSKVGPDGTPYVTVLKTAGANTTDKELEVLSLHNVTFEDAGEYTCLAGNSIGFSHHSAWLVVLPAEEELVEADEAGSVYAGILSYGVGFFLFILVVEAVTLCRLRSPPKKGLGSPTVHKISRFPLKRQVSLESNASMSSNTPLVRIARLSSGEGPTLANVSELELPADPKWELSRARLTLGKPLGEGCFGQVVMAEAIGIDKDRAAKPVTVAVKMLKDDATDKDLSDLVSEMEMMKMIGKHKNIINLLGACTQGGPLYVLVEYAAKGNLREFLRARRPPGLDYSFDTCKPPEEQLTFKDLVSCAYQVARGMEYLASQKCIHRDLAARNVLVTEDNVMKIADFGLARDVHNLDYYKKTTNGRLPVKWMAPEALFDRVYTHQSDVWSFGVLLWEIFTLGGSPYPGIPVEELFKLLKEGHRMDKPANCTHDLYMIMRECWHAAPSQRPTFKQLVEDLDRVLTVTSTDEYLDLSAPFEQYSPGGQDTPSSSSSGDDSVFAHDLLPPAPPSSGGSRT
notes: fibroblast growth factor receptor 3, human, with the pathogenic transmembrane-domain mutation A391E; full-length receptor; the mature 130 kDa form in the plasma membrane was quantified; Made from the FGFR3/WT plasmid by site-directed mutagenesis; the mutation occurs in patients; also called FGFR3/A391E; A391E mutant; source: HEK 293 T, transiently transfected (pcDNA 3.1+, Fugene 6), on cells
stoichiometry N: 2
